Patent US20250326828A1 (STAIDSON BEIJING BIOPHARMACEUTICALS, published 2025)
Substitutions are numbered along the chain they refer to.

T1: human GDF15-his (human)
T1 chain: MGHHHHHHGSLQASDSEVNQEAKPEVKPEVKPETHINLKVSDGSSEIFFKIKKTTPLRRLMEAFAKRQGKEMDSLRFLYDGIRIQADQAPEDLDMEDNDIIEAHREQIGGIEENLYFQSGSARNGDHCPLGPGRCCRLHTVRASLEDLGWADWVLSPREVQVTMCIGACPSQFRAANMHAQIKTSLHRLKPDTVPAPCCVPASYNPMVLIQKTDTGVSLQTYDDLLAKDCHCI

T2: human GDF15-hFc (human)
T2 construct: Recombinant hFc-tagged fusion protein expressed in 293F cells
T2 chain: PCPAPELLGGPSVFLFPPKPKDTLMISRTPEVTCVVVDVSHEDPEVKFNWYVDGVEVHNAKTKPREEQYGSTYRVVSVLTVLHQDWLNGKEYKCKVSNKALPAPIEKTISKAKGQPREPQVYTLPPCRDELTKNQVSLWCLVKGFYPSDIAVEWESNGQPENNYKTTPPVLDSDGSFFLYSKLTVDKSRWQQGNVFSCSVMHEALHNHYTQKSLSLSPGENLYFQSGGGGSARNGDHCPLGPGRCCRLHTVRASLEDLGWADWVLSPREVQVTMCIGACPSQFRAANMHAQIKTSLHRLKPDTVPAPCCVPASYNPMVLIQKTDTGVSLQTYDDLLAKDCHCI

T3: mouse GDF15-hFc (mouse)
T3 chain: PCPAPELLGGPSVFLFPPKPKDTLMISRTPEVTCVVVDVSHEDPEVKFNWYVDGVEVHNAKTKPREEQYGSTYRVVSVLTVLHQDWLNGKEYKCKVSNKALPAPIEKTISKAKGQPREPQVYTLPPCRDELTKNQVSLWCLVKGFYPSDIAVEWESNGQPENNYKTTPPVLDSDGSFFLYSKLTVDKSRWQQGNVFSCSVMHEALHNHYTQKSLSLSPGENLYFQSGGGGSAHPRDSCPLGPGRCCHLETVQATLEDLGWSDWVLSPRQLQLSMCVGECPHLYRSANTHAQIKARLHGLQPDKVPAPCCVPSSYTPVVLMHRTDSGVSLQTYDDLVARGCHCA

T4: rhesus monkey GDF15-hFc (rhesus monkey)
T4 chain: T2 chain with H237R, R252H, A285E, T294M, S295N, I343V

B1: hum_R37-1 (antibody, V domains shown)
VH: EVQLVESGGGLVKPGGSLRLSCAASGFSLSNYYMSWVRQAPGKGLEWIGMISFSGTTYATWAKGRFTISKDSSKNTVYLQINSLKTEDTAVYFCARVVYAGWTYPLGIWGQGTLVTVSS
VL: DIQLTQSPSSLSASVGDRVTITCQASQSISSVLSWYQQKPGKPPKALIYEASILASGVPSRFSGSGSGTDFTLTISSLQPEDFATYYCQANYDVYNYGNPFGGGTKVEIK
notes: Tested in human IgG1 format
B2: hum_R37-2 (antibody, V domains shown)
VH: EVQLVESGGGLVKPGGSLRLSCAASGFSLSNYYMSWVRQAPGKGLEWIGMISFSGTTYATWAKGRFTISKDSSTVYLQINSLKTEDTAVYFCARVVYAGWTYPLGIWGQGTLVTVSS
VL: B1 VL
notes: Tested in human IgG1 format
B3: hum_R37-3 (antibody, V domains shown)
VH: B1 VH with S72D
VL: B1 VL
notes: Tested in human IgG1 format
B4: hum_R37-5 (antibody, V domains shown)
VH: B1 VH with I48V, K70R, S72D
VL: B1 VL
notes: Tested in human IgG1 format
B5: hum_R54-1 (antibody, V domains shown)
VH: EVQLLESGGGLVQPGGSLRLSCAVSGFSLSSYDMTWVRQAPGKGLEWIGIISGSGNTYYASWAKGRFTISRDNSKNTVYLQMNSLRAEDTAVYFCARGILVYADYGDHNLWGQGTLVTVSS
VL: DIVMTQSPATLSVSPGERATLSCQASEDIYTNLAWFQQKPGQPPRLLIYAASTLASGIPARFSGSGSGTEFTLTISSLQSEDFAVYFCLGVYTYISAEGAFGQGTKVEIK
notes: Tested in human IgG1 format
B6: hum_R54-5 (antibody, V domains shown)
VH: B5 VH with R71K, N73S
VL: B5 VL with F87Y
notes: Tested in human IgG1 format
B7: hum_R54-8 (antibody, V domains shown)
VH: B5 VH with N56S, R71K, N73S
VL: B5 VL with F87Y
notes: Tested in human IgG1 format
B8: hum_R54-4 (antibody, V domains shown)
VH: B5 VH with N56S
VL: B5 VL
notes: Tested in human IgG1 format
B9: hum_R54-3 (antibody, V domains shown)
VH: B5 VH with G53N, N56S
VL: B5 VL
notes: Tested in human IgG1 format
B10: hum_R54-2 (antibody, V domains shown)
VH: B5 VH with G53S
VL: B5 VL
notes: Tested in human IgG1 format
B11: hum_R54-6 (antibody, V domains shown)
VH: B5 VH with G53S, R71K, N73S
VL: B5 VL with F87Y
notes: Tested in human IgG1 format
B12: hum_R54-7 (antibody, V domains shown)
VH: B5 VH with G53N, N56S, R71K, N73S
VL: B5 VL with F87Y
notes: Tested in human IgG1 format
B13: GDF-R40-rabIg1 (antibody, V domains shown)
VH: QSVKESEGRLVTPGTPLTLTCTASGFSLSSHWMSWVRQAPGKGLEWIGFVSPSGRAYYTSWVNGRFTISKTSTTVDLKITSPTTEDTATYFCARGYTSGLDIWGPGTLVTVSS
VL: AIDMTQTPSPVSATVGGTVTISCQSSKSVVNGDWLAWYQQKPGQPPKLLIYDAATLASGVPSRFKGSGSGTQFTLTISDVQCADAATYYCAGVYNNDSDNGFGGGTEVVVK
notes: Full-length rabbit antibody: rabbit IgG1 heavy constant and rabbit light constant; also called GDF15-R40-rabIg1
B14: GDF-R46-rabIg1 (antibody, V domains shown)
VH: SQTVKESGGRLVTPGTPLTLTCTASGFSLSNYYMSWVRQAPGEGLEWIGMISFSGTTHATWAKGRFTISKTSTTVDLKITSPTSEDTATYFCARVVYAGWTYPLGIWGPGTLVTVSS
VL: AQVMTQTPASVSEPVGGTVTIKCQASQSISSVLSWYQQKPGQPPKVLIYEASTLASGVPSRFKGSGSGTDFTLAISDLECADAATYYCQANYDVYNYGNPFGGGTEVVVK
notes: Full-length rabbit antibody: rabbit IgG1 heavy constant and rabbit light constant; also called GDF15-R46-rabIg1

Target: T1, human GDF15-his
Assay: cell-based or functional assay

| IC50 (read off the curve), SRE-luciferase signal in 293T-GFRAL/RET-Luc cells with human GDF15-his | Binder |
| --- | --- |
| ~0.2 nM | B1 |
| ~0.1 nM | B2 |
| ~0.1 nM | B3 |
| ~0.1 nM | B4 |

Target: T2, human GDF15-hFc
Assay: SPR, Biacore 8K; antibody on CM5 chip
Experimental: (§1) The binding affinity of anti-GDF15 antibodies for human GDF15, rhesus monkey GDF15, mouse GDF15 were characterized using Biacore 8K (GE). The anti-GDF15 antibodies were stabilized on sensor chip CM5. The binding affinity of antibody for GDF15 proteins from different species at various concentrations was measured. Using the SPR technology, the association and dissociation rates were measured, and binding affinity was determined.

| Kd | koff | kon | Binder |
| --- | --- | --- | --- |
| 1.07 nM | 0.000137 s⁻¹ | 129000 M⁻¹ s⁻¹ | B2 |
| 0.584 nM | 6.95e-05 s⁻¹ | 119000 M⁻¹ s⁻¹ | B4 |

Target: T3, mouse GDF15-hFc
Assay: SPR, Biacore 8K; antibody on CM5 chip
Experimental: as §1

| Kd | koff | kon | Binder |
| --- | --- | --- | --- |
| 118 nM | 0.00175 s⁻¹ | 14800 M⁻¹ s⁻¹ | B2 |
| 106 nM | 0.000869 s⁻¹ | 8210 M⁻¹ s⁻¹ | B4 |

Target: T4, rhesus monkey GDF15-hFc
Assay: SPR, Biacore 8K; antibody on CM5 chip
Experimental: as §1

| Kd | koff | kon | Binder |
| --- | --- | --- | --- |
| 1.28 nM | 0.00263 s⁻¹ | 2.06e+06 M⁻¹ s⁻¹ | B2 |
| 1.23 nM | 0.00421 s⁻¹ | 3.43e+06 M⁻¹ s⁻¹ | B4 |

Target: T1, human GDF15-his
Assay: ELISA as in Example 2: plate coated with the antibody, graded human GDF15-his, anti-his-HRP, OD450; the sheet's x axis reads 'Log GDF15 Antibody (nM)'
Experimental: (§2) ELISA binding assay: The purified monoclonal antibody was subjected to a binding assay with human GDF15-his protein. The binding assay was designed to characterize the binding activity of the anti-GDF15 antibody. Briefly, a 96-well plate was coated with anti-GDF15 antibody (200 ng/well) and incubated for 1 hour at 37° C. The plates were washed with PBST and then blocked for 1 hour at room temperature using 1% BSA. Then 100 µl/well of gradient-diluted human GDF15-his solution (dose range 0-50 μg/ml) was added into plates. After incubation, 100 μl of anti-his tag secondary antibody (anti-his-HRP (1:2000), Bersee, cat #BHR790) was added to each well. Finally, the TMB solution (100 μl/well) was added. 2M H₂SO₄ was used to stop the reaction. The OD450 was measured, and the binding curves were generated by PRISM software to analyze the affinity of candidate antibodies to human GDF15 antigen, and EC₅₀ value were calculated.

| EC50 (read off the curve) | Binder |
| --- | --- |
| ~50 nM | B1 |
| ~60 nM | B2 |
| ~60 nM | B3 |
| ~60 nM | B4 |

Target: T1, human GDF15-his
Assay: ELISA as in Example 2; antibody coated, human GDF15-his titrated
Experimental: as §2

| EC50 | Binder |
| --- | --- |
| 142 nM | B5 |
| 98.4 nM | B6 |
| 91.7 nM | B7 |
| 167 nM | B8 |
| 173 nM | B9 |
| 156 nM | B10 |
| 123 nM | B11 |
| 111 nM | B12 |

Target: T1, human GDF15-his
Assay: cell-based or functional assay
Remark: another data set of the same source

| IC50, GFRAL/RET reporter cell assay as in Example 2 | Binder |
| --- | --- |
| 0.11 nM | B5 |
| 0.08 nM | B6 |
| 0.03 nM | B7 |
| 0.08 nM | B8 |
| 0.07 nM | B9 |
| 0.1 nM | B10 |
| 0.05 nM | B11 |
| 0.04 nM | B12 |

Target: T2, human GDF15-hFc
Assay: competition ELISA; GFRAL-his coated, antibody titrated against human GDF15-hFc, anti-human IgG-HRP detection
Experimental: (§3) The ELISA assay was performed to measure the inhibitory activity of anti-GDF15 antibodies in concentration gradients to block GDF15 binding to GFRAL receptor. IC₅₀ values were used as a measure for neutralizing activity of candidate molecules. Briefly, 96-well plates were coated with 100 ng/well of GFRAL-his protein (SEQ ID NO: 74), and incubated for 1 h at 37° C. The plates were washed with PBST and then blocked for 1 hour at 37° C. with 1% BSA. Gradient-diluted antibodies (dose range 0˜10 μg/ml) was added into each well, immediately followed by equal volume of human GDF15-hFc protein ([…]). After incubation and washing, 100 μl of anti-human IgG secondary antibody (goat anti-human IgG-HRP, Sigma, A8667) was added to each well. Finally, TMB solution (100 μl/well) was added. 2M H₂SO₄ was used to stop the reaction. The OD450 was measured and the binding curve was generated by PRISM to calculate the IC₅₀ value.

| IC50 | Binder |
| --- | --- |
| 1.63 nM | B13 |
| 1.62 nM | B14 |

Target: T2, human GDF15-hFc
Assay: competition ELISA as in Example 2; GFRAL-his coated, antibody titrated against human GDF15-hFc
Experimental: as §3

| IC50 | Binder |
| --- | --- |
| 1 nM | B5 |
| 0.89 nM | B6 |
| 1 nM | B7 |
| 1.14 nM | B8 |
| 1.24 nM | B9 |
| 0.8 nM | B10 |
| 1.49 nM | B11 |
| 1.36 nM | B12 |
| 1.74 nM | B1 |
| 1.72 nM | B2 |
| 1.73 nM | B3 |
| 1.9 nM | B4 |

Target: T1, human GDF15-his
Assay: cell-based or functional assay
Remark: another data set of the same source

| IC50, 293T-GFRAL/RET-Luc SRE luciferase reporter cells stimulated with human GDF15-his (15 ng/ml) | Binder |
| --- | --- |
| 0.27 nM | B13 |
| 0.19 nM | B14 |
